{"source": "paper doi:10.64898/2026.08.21.746223", "key": {"[1]": {"molecular_target": "PelC (P. aeruginosa PAO1, PA3062), outer membrane lipoprotein (Pseudomonas aeruginosa PAO1)", "test": "cryo-EM structure"}, "[2]": {"molecular_target": "PelC (P. aeruginosa PAO1, PA3062), outer membrane lipoprotein (Pseudomonas aeruginosa PAO1)", "test": "cryo-EM structure", "remark": "listed apart in the source"}}, "note": "Where two headings read alike, the source gives them in different places."}
{"substance": "PelC (P. aeruginosa PAO1, PA3062), outer membrane lipoprotein (natural protein)", "values": [{"measurement": "stoichiometry N", "setting": "[1]", "result": 12}, {"measurement": "stoichiometry N", "setting": "[2]", "result": 12}]}
